Values belong to the molecule of their own block, whether it stands above or below them.
B3: PSMGFR minus 10 amino acids from the C-terminus (peptide)
peptide: GTINVHDVETQFNQYKTEAASRYNLTISDVSVSDV
notes: also called C-10; C-10 PSMGFR

What was measured:
[1] = biological target: MUC1-41TR (MUC1 with an extracellular domain truncated after 41 tandem repeats) (Homo sapiens (Human)) (UniProt P15941); assay: FACS on HCT-MUC1-41TR cells
[2] = biological target: T1, PSMGFR peptide (Primary Sequence of the MUC1 Growth Factor Receptor); assay: ELISA on PSMGFR peptide
T1 construct: synthetic peptide, immobilized on ELISA plates or attached to beads; also called MUC1* peptide; synthetic MUC1* extra cellular domain peptide
T1 peptide: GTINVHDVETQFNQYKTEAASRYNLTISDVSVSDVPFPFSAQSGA
From the text: FIGS. 21A-21B show an ELISA graph of several anti-MUC1* scFv-Fc fusion proteins wherein the Fc region has been eliminated or mutated. Shown are hu MN-E6 scFv-Fc-wt, hu MN-E6 scFv-Fc-Y407R, hu MN-E6 scFv-Fc-hingeless, and hu MN-E6 scFv-Fc-Y407R-hingeless. All mutants bind to the PSMGFR peptide of the MUC1* extracellular domain (A). An ELISA graph of several anti-MUC1* scFv-Fc fusion proteins wherein the Fc region is either wild type or mutated. Shown are hu MN-E6 scFv-Fc-wt, hu MN-E6 scFv-Fc-hingeless, and hu MN-C3 scFv-Fc is shown (B). All bind to the PSMGFR peptide of the MUC1* extracellular domain.

[3] = biological target: T2, PSMGFR minus 10 amino acids from the N-terminus; assay: selection criteria, FIGS. 3A-3C named
T2 construct: also called N-10; N-10 PSMGFR
T2 peptide: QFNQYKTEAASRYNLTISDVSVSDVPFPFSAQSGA
Method: (§1) FIGS. 3A-3C show results of competitive ELISA assays. The PSMGFR MUC1* peptide is immobilized on the plate and dimeric NM23-H1, aka NME1, is added either alone or after the MN-E6 antibody has been added (A). The same experiment was performed wherein NM23-H7, NME7-AB, is added alone or after MN-E6 has been added (B). […] In a similar experiment (C), PSMGFR or PSMGFR minus 10 amino acids from the N-terminus, aka N-10, is immobilized on the plate. Dimeric NM23-H1 is then added. Anti-MUC1* antibodies MN-E6, MN-C2, MN-C3 or MN-C8 are then tested for their ability to compete off the NM23-H1.

[4] = biological target: T1, PSMGFR peptide (Primary Sequence of the …); assay: competitive ELISA on immobilized PSMGFR or N-10 peptide
Method: as §1

dimeric NME1 = biological target: T3, dimeric NME1 (human, UniProt P15531 1-152, limits assumed); assay: ELISA on immobilized peptide
T3 construct: used as a dimer; also called dimeric NM23-H1; NM23-H1 dimers
T3 sequence (P15531 whole entry): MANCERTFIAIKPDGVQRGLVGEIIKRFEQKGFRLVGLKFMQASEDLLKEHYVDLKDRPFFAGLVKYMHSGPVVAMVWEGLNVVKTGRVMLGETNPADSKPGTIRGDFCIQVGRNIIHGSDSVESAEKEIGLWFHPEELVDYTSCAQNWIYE

NME7-AB = biological target: T4, NME7-AB (human, UniProt Q9Y5B8 92-376); assay: ELISA on immobilized peptide
T4 construct: also called NM23-H7
T4 sequence: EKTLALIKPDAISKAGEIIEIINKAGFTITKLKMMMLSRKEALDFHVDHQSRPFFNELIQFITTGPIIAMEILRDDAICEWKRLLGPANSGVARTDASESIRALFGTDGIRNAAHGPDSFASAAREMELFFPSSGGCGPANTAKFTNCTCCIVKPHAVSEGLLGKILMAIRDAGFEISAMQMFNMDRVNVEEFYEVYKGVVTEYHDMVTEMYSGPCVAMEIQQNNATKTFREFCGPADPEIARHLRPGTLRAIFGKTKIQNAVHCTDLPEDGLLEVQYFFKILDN

[5] = biological target: T5, MUC1-41TR (MUC1 with an extracellular domain truncated after 41 tandem repeats) (Homo sapiens (Human), UniProt P15941 24-1255); assay: CAR T co-culture, photographs; no T cell induced clustering
T5 construct: only minimally cleaved to MUC1*; also called HCT-MUC1-41TR; HCT-MUC1-18
T5 sequence (P15941 other isoform, or with tags, fused parts or gaps limits assumed): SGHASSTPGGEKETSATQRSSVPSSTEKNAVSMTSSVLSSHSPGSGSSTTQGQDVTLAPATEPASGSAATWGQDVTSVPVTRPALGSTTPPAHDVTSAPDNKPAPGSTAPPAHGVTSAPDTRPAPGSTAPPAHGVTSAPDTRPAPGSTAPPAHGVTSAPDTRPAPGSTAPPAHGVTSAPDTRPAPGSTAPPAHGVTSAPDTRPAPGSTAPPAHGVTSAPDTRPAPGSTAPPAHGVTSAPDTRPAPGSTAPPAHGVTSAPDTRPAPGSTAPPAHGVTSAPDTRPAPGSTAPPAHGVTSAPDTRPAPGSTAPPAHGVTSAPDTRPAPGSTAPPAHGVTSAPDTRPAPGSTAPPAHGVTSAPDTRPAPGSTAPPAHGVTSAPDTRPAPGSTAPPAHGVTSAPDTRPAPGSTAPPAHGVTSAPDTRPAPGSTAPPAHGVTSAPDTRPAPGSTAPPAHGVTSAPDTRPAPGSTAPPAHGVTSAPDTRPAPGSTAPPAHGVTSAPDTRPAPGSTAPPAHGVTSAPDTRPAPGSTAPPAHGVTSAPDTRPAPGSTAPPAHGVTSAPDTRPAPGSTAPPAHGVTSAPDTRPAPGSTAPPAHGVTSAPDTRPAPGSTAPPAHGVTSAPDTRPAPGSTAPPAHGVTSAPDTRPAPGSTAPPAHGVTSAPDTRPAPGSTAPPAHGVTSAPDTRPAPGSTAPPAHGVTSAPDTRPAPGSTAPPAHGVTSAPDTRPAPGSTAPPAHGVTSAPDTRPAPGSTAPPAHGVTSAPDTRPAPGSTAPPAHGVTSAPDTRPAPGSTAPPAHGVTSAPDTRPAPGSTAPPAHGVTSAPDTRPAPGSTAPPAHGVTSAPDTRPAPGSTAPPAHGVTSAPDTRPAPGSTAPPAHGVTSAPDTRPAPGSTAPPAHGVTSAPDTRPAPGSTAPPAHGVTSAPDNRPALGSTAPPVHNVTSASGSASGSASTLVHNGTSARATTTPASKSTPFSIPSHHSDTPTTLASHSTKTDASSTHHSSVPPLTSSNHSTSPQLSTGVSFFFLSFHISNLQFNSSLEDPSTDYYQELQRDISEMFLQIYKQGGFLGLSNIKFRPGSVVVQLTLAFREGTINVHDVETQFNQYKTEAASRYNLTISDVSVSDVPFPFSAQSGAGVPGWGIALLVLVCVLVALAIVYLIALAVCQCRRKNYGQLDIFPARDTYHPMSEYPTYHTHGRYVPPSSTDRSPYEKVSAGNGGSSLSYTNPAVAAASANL
Method: FIGS. 75A-75P show photographs of a CAR T co-culture assay in which the targeting antibody fragment of the CAR is huMNC2scFv wherein CAR44 has a CD8 transmembrane domain, followed by 41BB-3zeta and CAR50 has a CD4 transmembrane domain, followed by 41BB-3zeta. […] The HCT-MUC1-41TR cancer cells were also incubated with conditioned media from cells transfected with MMP9 or ADAM17 before co-culture with the CAR T cells. Conditioned media of the MMP9 or ADAM17 expressing cells were also incubated with APMA which is an activator of those cleavage enzymes. The images shown are an overlay of the 4× bright field image and the fluorescent image of the same showing cancer cells dyed with a red CMTMR lipophilic dye. FIGS. 75A, 75E, 75I, 75M show photographs of cells co-cultured with untransduced human T cells. FIGS. 75B, 75F, 75J, 75N show photographs of cells co-cultured with human T cells transduced with anti-MUC1* CAR44 at an MOI of 10. FIGS. 75C, 75G, 75K, 75O show photographs of cells co-cultured with human T cells transduced with anti-MUC1* CAR50 at an MOI of 10. FIGS. 75D, 75H, 75L, 75P show photographs of cells co-cultured with human T cells transduced with anti-MUC1* CAR44 at an MOI of 50, which increases transduction efficiency. […] There is no T cell induced clustering and the number of cancer cells has not decreased. […]

[6] = biological target: T1, PSMGFR peptide (Primary Sequence of the …); assay: ELISA, surface coated with PSMGFR peptide or a control peptide
Method: Humanized MN-C2 scFv is then incubated with the surface, washed and detected according to standard methods.

[7] = biological target: B3; assay: ELISA on immobilized N-10 and C-10 peptides
[8] = biological target: T1, PSMGFR peptide (Primary Sequence of the …); assay: ELISA on immobilized PSMGFR, N-10 and C-10 peptides
Method: FIGS. 22A-22C show graphs of ELISAs wherein the assay plate surface was immobilized with either PSMGFR peptide, PSMGFR minus 10 amino acids from the N-terminus or minus 10 amino acids from the C-terminus. The MN-C3 antibody variants were then assayed for binding to the various MUC1* peptides. A) Purified mouse monoclonal MN-C3 antibody; B) Impure humanized MN-C3 antibody; and C) the humanized MN-C3 scFv-Fc. ELISAs show binding to the PSMGFR peptide as well as to certain deletion peptides.

MUC1-41TR (MUC1 with an extracellular domain truncated after 41 tandem repeats) (Homo sapiens (Human)), sequence (P15941 other isoform, or with tags, fused parts or gaps limits assumed): as above

Molecule: VU4H5 (antibody)
percent of cells positive [1]: 95%

B1: humanized MN-E6 scFv (scFv, V domains shown, not shown: small tags and cut ends)
VH: EVQLVESGGGLVKPGGSLRLSCAASGFTFSRYGMSWVRQAPGKRLEWVSTISGGGTYIYYPDSVKGRFTISRDNAKNTLYLQMNSLRAEDTAVYYCTRDNYGRNYDYGMDYWGQGTLVTVSS
VL: EIVLTQSPATLSLSPGERATLTCSATSSVSYIHWYQQRPGQSPRLLIYSTSNLASGIPARFSGSGSGSDYTLTISSLEPEDFAVYYCQQRSSSPFTFGSGTKVEIK
notes: several humanized MN-E6 single chain proteins were generated; the one in the assays is not identified; also called hu MN-E6 scFv
binding result [2]: binds

B2: mouse monoclonal antibody MN-E6 (antibody, V domains shown)
VH: EVKVVESGGDLVKPGGSLKLSCVVSGFTFSRYGMSWVRQTPGKRLEWVATISGGGTYIYYPDSVKGRFTISRDNAKNTLYLQMSSLKSEDTAMYHCTRDNYGRNYDYGMDYWGQGTSVTVSS
VL: QIVLTQSPAIMSASPGEEVTLTCSATSSVSYIHWFQQRPGTSPKLWIYSTSNLASGVPVRFSGSGYGTSYSLTISRMEAEDAATYYCQQRSSSPFTFGSGTKLEIK
notes: mouse monoclonal; also called Min-E6
binding result [3]: binds
binding result [4]: binds

Molecule: B3
binding result (dimeric NME1): no binding
binding result (NME7-AB): no binding

B6: mouse monoclonal antibody MN-C3 (antibody, V domains shown)
VH: QVQLQQSGPELVRPGVSVKISCKGSGYRFTDYAMNWVKQSHAKSLEWIGVISTFSGNTNFNQKFKGKATMTVDKSSSTAYMELARLTSEDSAMYYCARSDYYGPYFDYWGQGTTLTVSS
VL: DVLMTQTPLSLPVSLGDQASISCRSSQTIVHSNGNTYLEWYLQKPGQSPKLLIYKVSNRFSGVPDRFSGSGSGTDFTLKINRVEAEDLGVYYCFQGSHVPFTFGSGTKLEIK
notes: mouse monoclonal; also called Min-C3
binding result [7]: binds
binding result [8]: binds

B7: mouse monoclonal antibody MN-C2 (antibody, V domains shown)
VH: EVQLEESGGGLVKPGGSLKLSCAASGFTFSGYAMSWVRQTPEKRLEWVATISSGGTYIYYPDSVKGRFTISRDNAKNTLYLQMSSLRSEDTAMYYCARLGGDNYYEYFDVWGAGTTVTVSS
VL: DIVITQSTASLGVSLGQRATISCRASKSVSTSGYSYMHWYQQRPGQPPKLLIYLASNLESGVPARFSGSGSGTDFTLNIHPVEEEDAATYYCQHSRELPFTFGGGTKLEIKR
notes: mouse monoclonal; also called Min-C2
binding result [3]: binds
binding result [4]: binds

Other lines, results leading:

binding result [5]: no binding
B4: CAR50 (MNC2 scFv, CD4 transmembrane domain, 41BB-3zeta) (other)
chain: EVQLVESGGGLVKPGGSLRLSCAASGFTFSGYAMSWVRQAPGKGLEWVSTISSGGTYIYYPDSVKGRFTISRDNAKNSLYLQMNSLRAEDTAVYYCARLGGDNYYEYFDVWGKGTTVTVSSGGGGSGGGGSGGGGSDIVLTQSPASLAVSPGQRATITCRASKSVSTSGYSYMHWYQQKPGQPPKLLIYLASNLESGVPARFSGSGSGTDFTLTINPVEANDTANYYCQHSRELPFTFGGGTKVEIKRTSGQVLLESNIKVLPTWSTPVQPMALIVLGGVAGLLLFIGLGIFFKRGRKKLLYIFKQPFMRPVQTTQEEDGCSCRFPEEEEGGCELRVKFSRSADAPAYKQGQNQLYNELNLGRREEYDVLDKRRGRDPEMGGKPRRKNPQEGLYNELQKDKMAEAYSEIGMKGERRRGKGHDGLYQGLSTATKDTYDALHMQALPPR
notes: chimeric antigen receptor on transduced human T cells; also called huMNC2-CAR50; huMNC2-scFv-CAR50

EC50 [6]: ~333 nM
B5: humanized MN-C2 scFv (scFv, V domains shown)
VH: EVQLVESGGGLVKPGGSLRLSCAASGFTFSGYAMSWVRQAPGKGLEWVSTISSGGTYIYYPDSVKGRFTISRDNAKNSLYLQMNSLRAEDTAVYYCARLGGDNYYEYFDVWGKGTTVTVSS
VL: DIVLTQSPASLAVSPGQRATITCRASKSVSTSGYSYMHWYQQKPGQPPKLLIYLASNLESGVPARFSGSGSGTDFTLTINPVEANDTANYYCQHSRELPFTFGGGTKVEIKR
notes: several humanized MN-C2 single chain proteins were generated; the one in the assays is not identified; also called huMN-C2 scFv; hMN-C2 scFv; not shown: 6x His tag, detected in the flow cytometry assay

binding result [5]: no binding
B8: CAR44 huMNC2-CD8-4-1BB-CD3z (other)
chain: EVQLVESGGGLVKPGGSLRLSCAASGFTFSGYAMSWVRQAPGKGLEWVSTISSGGTYIYYPDSVKGRFTISRDNAKNSLYLQMNSLRAEDTAVYYCARLGGDNYYEYFDVWGKGTTVTVSSGGGGSGGGGSGGGGSDIVLTQSPASLAVSPGQRATITCRASKSVSTSGYSYMHWYQQKPGQPPKLLIYLASNLESGVPARFSGSGSGTDFTLTINPVEANDTANYYCQHSRELPFTFGGGTKVEIKRTTTTPAPRPPTPAPTIASQPLSLRPEACRPAAGGAVHTRGLDFACDIYIWAPLAGTCGVLLLSLVITLYCKRGRKKLLYIFKQPFMRPVQTTQEEDGCSCRFPEEEEGGCELRVKFSRSADAPAYKQGQNQLYNELNLGRREEYDVLDKRRGRDPEMGGKPRRKNPQEGLYNELQKDKMAEAYSEIGMKGERRRGKGHDGLYQGLSTATKDTYDALHMQALPPR
notes: also called huMNC2-CAR44; huMNC2-scFv-CAR44

binding result [8]: binds
B9: humanized MN-C3 antibody (antibody, V domains shown)
VH: QVQLVQSGAEVKKPGASVKVSCKASGYTFTDYAMNWVRQAPGQGLEWMGVISTFSGNTNFNQKFKGRVTMTTDTSTSTAYMELRSLRSDDTAVYYCARSDYYGPYFDYWGQGTTLTVSS
VL: DIVMTQTPLSLSVTPGQPASISCRSSQTIVHSNGNTYLEWYLQKPGQSPQLLIYKVSNRFSGVPDRFSGSGSGTDFTLKISRVEAEDVGVYYCFQGSHVPFTFGGGTKVEIKR
notes: tested impure; also called Impure humanized MN-C3 antibody

Reference: patent US20200390870A1 (MINERVA BIOTECHNOLOGIES, published 2020)
